Source: US20260242478A1 (published 2026)

Legend:
PSMA Fab (006 PSMA Fab) = target: T1, PSMA Fab (006 PSMA Fab); test: phage binding ELISA; biotinylated PSMA Fab on neutravidin plate, clonal phage supernatant, anti-M13 HRP detection;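 note: wells were preincubated with blocking buffer either containing PSMA antigen or without it before crude phage supernatant was added, briefly incubated, then washed prior to detection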
T1 construct: also called Anti-PSMA Fab; anti-PSMA Fab
Procedure: (§1) Clonal phage were harvested as crude supernatants and screened via standard ELISAs. […] Prior to the addition of clonal phage. wells were incubated with blocking buffer and PSMA antigen or blocking buffer alone. Without washing or aspirating, clonal phage supernatants were then added to the wells and incubated for a short time. Wells were then washed followed by detection of bound phage using a horse radish conjugated anti-M13 antibody.

006 PSMA Fab [1] = target: T2, 006 PSMA Fab; test: clonal phage ELISA; biotinylated PSMA Fab captured on neutravidin plate, blocking buffer alone; bound phage detected with anti-M13 HRP
T2 construct: In the phage ELISA the PSMA Fab was biotinylated and captured on neutravidin coated plates; also called Anti-PSMA Fab
Procedure: as §1

006 PSMA Fab [2] = target: T2, 006 PSMA Fab; test: clonal phage ELISA; biotinylated PSMA Fab captured on neutravidin plate, wells pre-incubated with PSMA antigen as competitor; bound phage detected with anti-M13 HRP
Procedure: as §1

Anti-PSMA Fab [3] = target: T3, Anti-PSMA Fab (biotinylated (site not stated)); test: clonal phage ELISA on plate-captured biotinylated PSMA Fab, blocking buffer alone
T3 construct: Biotinylated PSMA Fab captured on neutravidin coated plates; also called 006 PSMA Fab

Anti-PSMA Fab [4] = target: T3, Anti-PSMA Fab; test: clonal phage ELISA on plate-captured biotinylated PSMA Fab, wells pre-incubated with PSMA antigen as competitor
Procedure: as §1

Binder	Phage binding ELISA signal, Anti-PSMA Fab (PSMA Fab (006 PSMA Fab))	Phage binding ELISA signal, Anti-PSMA Fab (006 PSMA Fab [1])	Phage binding ELISA signal, Anti-PSMA Fab with PSMA antigen (006 PSMA Fab [2])	Phage binding ELISA signal, Anti-PSMA Fab (Anti-PSMA Fab [3])	phage binding ELISA signal (Anti-PSMA Fab with PSMA) (Anti-PSMA Fab [4])
MQDFCKPLWMCSGF (Tested as clonal phage supernatant; not shown: fused to the pIII filament protein of the bacteriophage) [Phage-3938 (Peptide-180 library clone)]	0.921	–	–	–	–
YARECIPQWMCGGF [Phage-3939]	–	0.918	0.0765	–	–
PLTSCVPQWMCYGF [Phage-3940]	–	0.913	0.0873	–	–
LVRMCQPPWMCDGF [Phage-3941]	–	0.912	0.0699	–	–
GDIQCRPLWMCDGL [Phage-3942]	–	0.907	0.128	–	–
DQVMCIPRWMCEGF [Phage-3943]	–	0.904	0.0676	–	–
EFRECRPPWMCQGL [Phage-3944]	–	0.899	0.0789	–	–
DSLVCQPRWMCVGF [Phage-3945]	–	0.895	0.063	–	–
STMSCVPSWMCLGF [Phage-3946]	–	0.885	0.0614	–	–
TQVKCIPLWMCDGF [Phage-3947]	–	0.885	0.0544	–	–
LTVYCTPEWMCSGW [Phage-3948]	–	0.882	0.0749	–	–
GWVGCVPLWMCEGF [Phage-3949]	–	0.878	0.0698	–	–
ILPRCEPYWMCTGL [Phage-3950]	–	0.872	0.0634	–	–
TVRSCTPPWMCEGF [Phage-3951]	–	0.871	0.0856	–	–
AVHMCAPSWMCSGF [Phage-3952]	–	0.87	0.0825	–	–
GLPQCVPPWMCDGF (tested as crude clonal phage supernatant) [Phage-3953]	–	–	–	0.864	0.056
FFQVCEPQWMCLGF (tested as crude clonal phage supernatant) [Phage-3954]	–	–	–	0.854	0.0548
YERVCVPSWMCNSL (tested as crude clonal phage supernatant) [Phage-3955]	–	–	–	0.838	0.0845
DVLMCKPEWMCLGY (tested as crude clonal phage supernatant) [Phage-3956]	–	–	–	0.837	0.0628
TIQWCEPLWMCRGF (tested as crude clonal phage supernatant) [Phage-3957]	–	–	–	0.835	0.0643
TAPWCQPRWMCDGF (tested as crude clonal phage supernatant) [Phage-3958]	–	–	–	0.828	0.0701
AEMLCVPPWMCKAF (tested as crude clonal phage supernatant) [Phage-3959]	–	–	–	0.823	0.0615
EGGYCVPTWMCSGF (tested as crude clonal phage supernatant) [Phage-3960]	–	–	–	0.822	0.0786
LVSWCTPPWMCEGV (tested as crude clonal phage supernatant) [Phage-3961]	–	–	–	0.818	0.131
FDGWCVPAWMCYPF (tested as crude clonal phage supernatant) [Phage-3962]	–	–	–	0.816	0.0796
